Data taken from article PMC6572788.

Tests used:
[1] = target: wt-CFTR fused to enhanced green fluorescent protein (His10-SUMO*-CFTR^FLAG-EGFP), PKA phosphorylated (human) (UniProt P13569)
[2] = target: stabilized version of human CFTR (stab-CFTR: 2PT/ΔRI/R1048A_1172X) (human) (UniProt P13569)
[3] = target: wt-CFTR fused to enhanced green fluorescent protein (His10-SUMO*-CFTR^FLAG-EGFP), PKA phosphorylated (human) (UniProt P13569); remark: listed apart in the source

Sequence of wt-CFTR fused to enhanced green fluorescent protein (His10-SUMO*-CFTR^FLAG-EGFP), PKA phosphorylated (human) (P13569 whole entry, the tested form may be a part): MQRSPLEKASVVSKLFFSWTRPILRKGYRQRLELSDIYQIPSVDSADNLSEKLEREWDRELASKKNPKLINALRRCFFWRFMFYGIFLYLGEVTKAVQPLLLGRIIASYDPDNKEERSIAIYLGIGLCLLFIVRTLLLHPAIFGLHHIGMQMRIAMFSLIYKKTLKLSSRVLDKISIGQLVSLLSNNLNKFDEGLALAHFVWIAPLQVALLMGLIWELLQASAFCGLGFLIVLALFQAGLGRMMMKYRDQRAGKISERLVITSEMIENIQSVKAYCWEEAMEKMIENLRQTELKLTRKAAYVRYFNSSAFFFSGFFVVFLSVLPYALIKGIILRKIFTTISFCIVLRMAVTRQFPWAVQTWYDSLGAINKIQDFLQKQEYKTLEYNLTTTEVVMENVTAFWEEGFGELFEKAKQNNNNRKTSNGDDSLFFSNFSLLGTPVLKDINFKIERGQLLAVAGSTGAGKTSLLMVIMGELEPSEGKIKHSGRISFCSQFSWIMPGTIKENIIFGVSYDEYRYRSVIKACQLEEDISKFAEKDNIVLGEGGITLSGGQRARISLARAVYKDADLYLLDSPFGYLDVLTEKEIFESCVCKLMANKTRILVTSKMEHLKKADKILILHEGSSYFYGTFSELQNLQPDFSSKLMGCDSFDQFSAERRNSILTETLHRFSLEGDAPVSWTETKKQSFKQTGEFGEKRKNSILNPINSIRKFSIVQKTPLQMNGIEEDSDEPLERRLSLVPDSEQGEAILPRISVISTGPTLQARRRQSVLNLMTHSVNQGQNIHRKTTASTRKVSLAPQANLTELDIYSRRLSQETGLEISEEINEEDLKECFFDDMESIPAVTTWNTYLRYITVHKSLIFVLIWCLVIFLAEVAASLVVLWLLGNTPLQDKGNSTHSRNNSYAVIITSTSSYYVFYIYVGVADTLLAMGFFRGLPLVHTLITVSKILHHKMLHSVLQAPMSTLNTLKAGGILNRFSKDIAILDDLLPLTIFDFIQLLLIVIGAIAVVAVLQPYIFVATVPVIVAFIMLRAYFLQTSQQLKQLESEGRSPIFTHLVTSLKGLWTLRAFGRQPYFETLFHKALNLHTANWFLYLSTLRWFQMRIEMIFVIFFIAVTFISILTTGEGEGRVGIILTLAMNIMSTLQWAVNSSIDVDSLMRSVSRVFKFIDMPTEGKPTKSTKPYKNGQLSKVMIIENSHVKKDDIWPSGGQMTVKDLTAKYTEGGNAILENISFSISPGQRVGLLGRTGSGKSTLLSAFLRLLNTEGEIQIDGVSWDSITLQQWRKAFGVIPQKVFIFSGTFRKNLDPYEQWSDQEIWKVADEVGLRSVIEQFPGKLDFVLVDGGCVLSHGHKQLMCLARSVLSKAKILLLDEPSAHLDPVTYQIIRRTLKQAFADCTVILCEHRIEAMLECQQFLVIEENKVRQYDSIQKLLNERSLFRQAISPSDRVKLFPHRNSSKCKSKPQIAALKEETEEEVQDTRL
Sequence of stabilized version of human CFTR (stab-CFTR: 2PT/ΔRI/R1048A_1172X) (human) (P13569 other isoform, or with tags, fused parts or gaps, stated change not applied): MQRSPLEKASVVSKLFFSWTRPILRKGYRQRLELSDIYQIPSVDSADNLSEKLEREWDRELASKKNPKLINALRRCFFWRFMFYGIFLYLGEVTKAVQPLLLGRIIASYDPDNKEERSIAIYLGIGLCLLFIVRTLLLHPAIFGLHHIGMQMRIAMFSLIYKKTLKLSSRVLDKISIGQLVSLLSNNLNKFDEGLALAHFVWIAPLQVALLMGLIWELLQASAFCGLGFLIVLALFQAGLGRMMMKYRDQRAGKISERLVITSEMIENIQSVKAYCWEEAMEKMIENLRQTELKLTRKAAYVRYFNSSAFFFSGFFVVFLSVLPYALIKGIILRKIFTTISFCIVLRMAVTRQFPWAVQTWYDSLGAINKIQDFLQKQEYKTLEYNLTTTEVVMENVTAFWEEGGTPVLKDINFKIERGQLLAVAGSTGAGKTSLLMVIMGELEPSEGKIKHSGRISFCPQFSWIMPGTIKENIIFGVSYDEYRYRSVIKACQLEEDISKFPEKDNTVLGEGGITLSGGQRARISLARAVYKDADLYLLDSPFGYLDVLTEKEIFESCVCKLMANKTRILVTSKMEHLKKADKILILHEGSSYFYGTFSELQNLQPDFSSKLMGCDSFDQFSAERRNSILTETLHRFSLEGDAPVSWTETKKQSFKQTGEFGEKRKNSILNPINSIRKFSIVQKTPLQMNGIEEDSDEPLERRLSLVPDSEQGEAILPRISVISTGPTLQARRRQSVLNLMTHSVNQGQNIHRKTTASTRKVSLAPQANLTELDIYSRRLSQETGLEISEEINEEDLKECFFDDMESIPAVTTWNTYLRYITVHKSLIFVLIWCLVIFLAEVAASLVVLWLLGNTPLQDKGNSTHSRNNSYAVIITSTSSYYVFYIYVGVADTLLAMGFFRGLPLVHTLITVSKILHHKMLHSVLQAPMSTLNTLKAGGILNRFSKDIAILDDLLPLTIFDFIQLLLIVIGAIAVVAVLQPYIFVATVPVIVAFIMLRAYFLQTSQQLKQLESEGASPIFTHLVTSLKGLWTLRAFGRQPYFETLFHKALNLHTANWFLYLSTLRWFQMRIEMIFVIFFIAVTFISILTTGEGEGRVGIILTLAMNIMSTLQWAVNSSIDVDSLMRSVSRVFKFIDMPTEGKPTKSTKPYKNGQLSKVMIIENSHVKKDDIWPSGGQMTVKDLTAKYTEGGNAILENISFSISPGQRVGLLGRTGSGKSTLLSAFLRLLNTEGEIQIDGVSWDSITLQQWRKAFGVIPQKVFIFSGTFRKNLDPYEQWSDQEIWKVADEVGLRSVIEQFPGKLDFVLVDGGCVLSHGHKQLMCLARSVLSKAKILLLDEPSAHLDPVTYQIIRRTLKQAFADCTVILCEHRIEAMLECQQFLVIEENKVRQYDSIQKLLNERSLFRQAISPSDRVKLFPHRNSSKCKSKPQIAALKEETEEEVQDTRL

Row | Binder | ATPase activity of PKA-phosphorylated wt-CFTR (25 nM) with 1 µM nanobody, percent of the activity without nanobody [1] [%] | thermostabilization of stab-CFTR by nanoDSF (~1:2 molar ratio) [2] [°C] | shift of the temperature of thermal inactivation of the ATPase activity of wt-CFTR (30 min heat challenge) [3] [°C] | shift of the temperature of thermal inactivation of the ATPase activity of wt-CFTR (30 min heat challenge; 15 µM G3a) [3] [°C]
1 | nanobody T2a (VHH) VHH: QVQLQESGGGLVQAGGSLRLSCAASGSIFRIDAMGWYRQAPGKQRELVAHSTSGGSTDYADSVKGRFTISRDNAKNTVYLQMNSLKPEDTAVYYCNADVRTRWYASNNYWGQGTQVTVSS | 50 | 8 | – | –
2 | nanobody D12 (VHH) VHH: QVQLQESGGGLVQAGSSLRLACAATGSIRSINNMGWYRQAPGKQRGMVAIITRVGNTDYADSVKGRFTISRDNAKNTVYLQMNSLKPEDTATYYCHAEITEQSRPFYLTDDYWGQGTQVTVSS | 50 | – | 7 | –
3 | nanobody T4 (VHH) VHH: QVQLQESGGGLVQAGGSLRLSCAASGSTFAIIAMGWYRQAPGKQRELVAVISTGDTRYADSVKGRFTISRDNAKNTVYLQMDSLRPEDTAVYYCNAAVQVRDYRNYWGQGTQVTVSS | – | 8 | – | –
4 | nanobody G3a (VHH) VHH: QVQLQESGGGLVQAGGSLRLSCTASGRAFSWYVMGWFRQAPGKEREFVATVSGNGSRRDYADSVKGRFTISRDNAKNTVYLQMNSLKPEDTAVYYCAASSTYYYTDPEKYDYWGQGTQVTVSS | – | – | – | 3.1
5 | nanobody T27 (VHH) VHH: QVQLQESGGGLEQPGGSLRLSCATSGVIFGINAMGWYRQAPGKQRELVATFTSGGSTNYADFVEGRFTISRDNAKNTVYLQMNGLRPEDTAVYYCHATVVVSRYGLTYDYWGQGTQVTVSS | 30 | – | – | –
